Experimental data from patent publication US20040180417A1, “Secretase/sheddase with asp-ase activity on the beta-site app-cleaving enzyme (bace, asp2, memepsin2)” (priority 2000, published 2004).

B1: PC7 (protein)
chain: SIHFNDPKYPQQWHLNNRRSPGRDINVTGVWERNVTGRGVTVVVVDDGVEHTVQDIAPNYSPEGSYDLNSNDPDPMPHPDEENGNHHGTRCAGEIAAVPNNSFCAVGVAYGSRIAGIRVLDGPLTDSMEAVAFNKHYQINDIYSCSWGPDDDGKTVDGPHQLGKAALQHGVMAGRQGFGSIFVVASGNGGQHNDNCNYDGYANSIYTVTIGAVDEEGRMPFYAEECASMLAVTFSGGDKMLRSIVTTDWDLQKGTGCTEGHTGTSAAAPLAAGMIALMLQVRPCLTWRDVQHIIVFTATQYEDHRADWLTNEAGFSHSHQHGFGLLNAWRLVNAAKIWTSVPYLASYVSPMLKENKAVPRSPHSLEVLWNVSRTDLEMSGLKTLEHVAVTVSITHPRRGSLELKLFCPSGMMSLIGAPRSMDSDPNGFNDWTFSTVRCWGERARGVYRLVIRDVGDEPLQVGILQQWQLTLYGSTWSPVDIKDRQSLLESAMSGKYLHDDFTLPCPPGLKIPEEDGYSITPNTLKT
B2: α2M: wild type α2-macroglobulin (protein, UniProt P01023 24-1474, looked up)
Alpha-2-macroglobulin: SVSGKPQYMVLVPSLLHTETTEKGCVLLSYLNETVTVSASLESVRGNRSLFTDLEAENDVLHCVAFAVPKSSSNEEVMFLTVQVKGPTQEFKKRTTVMVKNEDSLVFVQTDKSIYKPGQTVKFRVVSMDENFHPLNELIPLVYIQDPKGNRIAQWQSFQLEGGLKQFSFPLSSEPFQGSYKVVVQKKSGGRTEHPFTVEEFVLPKFEVQVTVPKIITILEEEMNVSVCGLYTYGKPVPGHVTVSICRKYSDASDCHGEDSQAFCEKFSGQLNSHGCFYQQVKTKVFQLKRKEYEMKLHTEAQIQEEGTVVELTGRQSSEITRTITKLSFVKVDSHFRQGIPFFGQVRLVDGKGVPIPNKVIFIRGNEANYYSNATTDEHGLVQFSINTTNVMGTSLTVRVNYKDRSPCYGYQWVSEEHEEAHHTAYLVFSPSKSFVHLEPMSHELPCGHTQTVQAHYILNGGTLLGLKKLSFYYLIMAKGGIVRTGTHGLLVKQEDMKGHFSISIPVKSDIAPVARLLIYAVLPTGDVIGDSAKYDVENCLANKVDLSFSPSQSLPASHAHLRVTAAPQSVCALRAVDQSVLLMKPDAELSASSVYNLLPEKDLTGFPGPLNDQDNEDCINRHNVYINGITYTPVSSTNEKDMYSFLEDMGLKAFTNSKIRKPKMCPQLQQYEMHGPEGLRVGFYESDVMGRGHARLVHVEEPHTETVRKYFPETWIWDLVVVNSAGVAEVGVTVPDTITEWKAGAFCLSEDAGLGISSTASLRAFQPFFVELTMPYSVIRGEAFTLKATVLNYLPKCIRVSVQLEASPAFLAVPVEKEQAPHCICANGRQTVSWAVTPKSLGNVNFTVSAEALESQELCGTEVPSVPEHGRKDTVIKPLLVEPEGLEKETTFNSLLCPSGGEVSEELSLKLPPNVVEESARASVSVLGDILGSAMQNTQNLLQMPYGCGEQNMVLFAPNIYVLDYLNETQQLTPEIKSKAIGYLNTGYQRQLNYKHYDGSYSTFGERYGRNQGNTWLTAFVLKTFAQARAYIFIDEAHITQALIWLSQRQKDNGCFRSSGSLLNNAIKGGVEDEVTLSAYITIALLEIPLTVTHPVVRNALFCLESAWKTAQEGDHGSHVYTKALLAYAFALAGNQDKRKEVLKSLNEEAVKKDNSVHWERPQKPKAPVGHFYEPQAPSAEVEMTSYVLLAYLTAQPAPTSEDLTSATNIVKWITKQQNAQGGFSSTQDTVVALHALSKYGAATFTRTGKAAQVTIQSSGTFSSKFQVDNNNRLLLQQVSLPELPGEYSMKVTGEGCVYLQTSLKYNILPEKEEFPFALGVQTLPQTCDEPKAHTSFQISLSVSYTGSRSASNMAIVDVKMVSGFIPLKPTVKMLERSNHVSRTEVSSNHVLIYLDKVSNQTLSLFFTVLQDVPVRDLKPAIVKVYDYYETDEFAIAEYNAPCSKDLGNA

How the values were obtained:
[1] = system: [proBACES]FG/V5; test: In vitro PC-mediated processing of proBACES (Western blot); format: biochemical, mouse; details: equivalent hydrolytic activities of PCs, 1-4 hours incubation
[2] = system: proBACE processing by PC-like enzyme; test: proBACE processing in HK293 cells co-expressing [BACEF]FG/V5 and PC-inhibitors (pulse-chase, immunoprecipitation, SDS-PAGE); format: cell-based, human; details: co-expression; 20 min [35S]Met pulse, 90 min chase; FG immunoprecipitation
Protocol: FIG. 1: HK293 cells were transiently co-transfected with either ([BACEF]FG/V5+BDNF) [control, CTL] (A,C) or ([BACEF]FG/V5+α1-PDX) (B,D) cDNAs. Two days post-transfections the cells were pulse-labeled in the absence or presence of […] BFA for 15 min with [^35S]Met and then chased for 1 or 2h. Cell lysates were immunoprecipitated with either the FG or V5 mAbs and analysed by SDS-PAGE on 8% tricine gels. The migration position of the 53 kDa molecular mass standard and those of proBACE (pBACE) and BACE are emphasized.
FIG. 2: [A] HK293 cells were transiently co-transfected with cDNAs coding for either ([BACEF]FG/V5+BDNF) [control, CTL], ([BACEF-R45A]FG/V5+BDNF) or ([BACEF-R42A]FG/V5+BDNF) or ([BACEF]FG/V5+either α1-PDX, the prosegments of furin, PC5, PC7, SKI-1, furin-mutated (α2M-F) or wild type (α2M) α2-macroglobulin. The cells were pulse-labeled for 20 min with [^35S]Met and then chased for 90 min. Cell lysates were immunoprecipitated with the FG mAb and analysed by SDS-PAGE on 8% tricine gels. [B] HK293 cells were transiently co-transfected with cDNAs coding for either ([BACEF]FG/V5+BDNF) [CTL], ([BACEF]FG/V5+furin) or ([BACEF]FG/V5+α1-PDX). The cells were then pulse-labeled for 2h with Na2[^35SO4]. Cell lysates were immunoprecipitated with the FG or V5 mAbs and analysed by SDS-PAGE on 8% tricine gels. […]

Molecule	ability to process proBACE into BACE [1]	quantity of the 72 kDa proBACE (pBACEG, Golgi form) [2]
B1	barely, if at all, able	–
B2	–	barely detectable
